Here are results for one molecule from paper PMC6274671 (International Journal of Molecular Sciences, 2018).

The test addresses T1, bovine serum albumin (Bos taurus, UniProt P02769).
T1 construct: also called BSA
The test is described as follows: ELISA. The settings on record: both partners purified.

T1 sequence (P02769 25-607): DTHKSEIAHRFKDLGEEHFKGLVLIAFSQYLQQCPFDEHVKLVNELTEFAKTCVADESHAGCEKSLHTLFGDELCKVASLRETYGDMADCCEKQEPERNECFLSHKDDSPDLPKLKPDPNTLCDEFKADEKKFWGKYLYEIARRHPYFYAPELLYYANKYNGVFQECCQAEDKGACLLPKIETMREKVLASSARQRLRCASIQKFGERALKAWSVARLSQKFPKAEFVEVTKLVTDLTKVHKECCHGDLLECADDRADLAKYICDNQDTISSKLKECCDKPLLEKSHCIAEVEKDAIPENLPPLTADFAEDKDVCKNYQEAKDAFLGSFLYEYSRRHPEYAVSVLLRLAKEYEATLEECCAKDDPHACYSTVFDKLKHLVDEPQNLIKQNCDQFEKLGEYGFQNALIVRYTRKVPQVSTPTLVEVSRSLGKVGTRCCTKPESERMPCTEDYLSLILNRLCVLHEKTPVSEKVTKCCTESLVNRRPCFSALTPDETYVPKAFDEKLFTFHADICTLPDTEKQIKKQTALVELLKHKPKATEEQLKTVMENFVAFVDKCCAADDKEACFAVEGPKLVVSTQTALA

B1: fluorescein-specific VHH-D4 (VHH)
VHH: QVQLVESGGALVQPGGSLRLSCAASGFTFGSFSMSWYRQATGKEREWVAGLSAGSSSTYYADSVKGRFTISRDNARNTVYLQMNSLKPEDTAVYYCARRTNTSSGSAGSFSTCIDDWGQGTQVTVSS
notes: also called clone D4
Take B1: the binding result is “no binding”.
